# Source: US20200109194A1 (BLUEFIN BIOMEDICINE, published 2020)
# Positions count from the first letter of the chain named. Numbers in names are those of the source.
# B1: 10C10 (antibody, human IgG1, V domains shown)
# VH: QVQLVESGGGVVQPGRSLRLSCATSGFTFSIYGMHWVRQAPGKGLEWVAIIWYDGNKKYYADSVKGRFTISRDNSKNTLYLQMNSLRAEDTAVYYCARDPYTSSLDYWGQGTLVTVSS
# VL: DIQLTQSPSFLSASVGDRVTITCRASQGISSYLAWYQQKPGKAPKLLIYAASTLQSGVPSRFSGSGSGTEFTLTISSLQPEDFATYYCQQLNSYPLTFGGGTKLEIK
# B2: M33F (antibody, human IgG1, V domains shown)
# VH: QVQLQESGPGLVKPSETLSLTCAVSGYSISSGYFWGWIRQPPGKKLEWIGSIYHSGSTYYNPSLKSRVTMSVDTSKNQFSLKLSSVTAADTAVYYCAREGDCSGGICYWYFDLWGRGTLVTVSS
# VL: B1 VL with L4M, F10S, S31N, A43V, F71V, P80S, T85V, L91Y, S93K, Y94W
# B3: 18C2 (antibody, human IgG1, V domains shown)
# VH: B1 VH with T24A, K43M, W52R, N56S, K57N, Q82R, Y101F
# VL: B1 VL
# B4: 7F12 (antibody, human IgG1, V domains shown)
# VH: B1 VH with T24A, N56S, K57D, S103T
# VL: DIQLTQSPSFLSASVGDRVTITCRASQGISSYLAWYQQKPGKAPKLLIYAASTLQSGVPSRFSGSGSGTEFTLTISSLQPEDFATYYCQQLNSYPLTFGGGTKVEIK
# B5: M1H1 (antibody, human IgG1, V domains shown)
# VH: B2 VH
# VL: B1 VL with L4M, F10S, S31N, A43V, E70D, T85V, L91Y, S93K, Y94W
# B6: 19D9 (antibody, human IgG1, V domains shown)
# VH: B1 VH with T24A, I50N, N56S, A92S
# VL: B1 VL with A50T
# B7: 31B7 (antibody, human IgG1, V domains shown)
# VH: QVQLVESGGGVVQPGRSLRLSCAASGFTFSSYGMHWVRQAPGKGLEWVAVIWYNGINKYYADSVKGRFTISRDASKNTLYLQMNSLRAEDTAVYYCAREGLLWFGGMDVWGQGTTVTVSS
# VL: EIVLTQSPLSLPVTPGEPASISCRSSQSLLHSNGYNYLHWYLQKPGQSPQLLIYLGSNRASGVPDRFSGSRSGTDFTLKIIRVEAEDVGVYYCMQALQTPYTFGQGTKLEIK
# B8: 34E1_56A4 (antibody, human IgG1, V domains shown)
# VH: B7 VH with F27L, S31R, G33A, N54D, I56S, A74T
# VL: B7 VL with E1D, R71G, I81S, V90L
# B9: 27G5_56A2 (antibody, V domains shown)
# VH: QVQLQESGPGLVKPSETLSLTCAVSDYSISSGYYWGWIRQPPGKGLEWIGSIYHSGSTYYNPSLKSRVTISVDMSKNQFSLKLSSVTAADTAVYYCARDRDSVSWNGGRDYYYYGMDVWGQGTTVTVSS
# VL: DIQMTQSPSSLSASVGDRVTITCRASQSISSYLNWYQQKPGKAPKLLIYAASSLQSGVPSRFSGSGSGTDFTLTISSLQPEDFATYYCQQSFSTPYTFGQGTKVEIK
# B10: 24F10 (antibody, V domains shown)
# VH: QVQLVESGGGVVQPGRSLRLSCAASGFTFSSYGMHWVRQAPGKGLEWVAVIWYDGSDKYYTDSVKGRFTISRDNSKNTLYLQMNSLRAEDTAVYYCARESMVRGIVITFFDYWGQGTLVTVSS
# VL: EIVMTQSPATLSVSPGERATLSCRASQSVSSNLAWYQQKPGQAPRLLIYGASTRATGIPARFSGSGSGTEFTLTISSLQSEDFAVYSCQHYNNWPPTFGGGTKVEIK
# B11: M10 (antibody, human IgG1, V domains shown)
# VH: B10 VH with V11G, S31R, K58E, T61A, S100T, V102G, V106I, T108S, F109Y, L118P
# VL: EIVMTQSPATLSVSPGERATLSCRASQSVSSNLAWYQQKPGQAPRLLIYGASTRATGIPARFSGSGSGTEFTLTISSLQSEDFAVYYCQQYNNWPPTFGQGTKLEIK
# B12: 30C10 (antibody, human IgG1, V domains shown)
# VH: B10 VH with T61A, N77K, Y95F, S100T, M101I, V102F, I105L, V106T, Y112H
# VL: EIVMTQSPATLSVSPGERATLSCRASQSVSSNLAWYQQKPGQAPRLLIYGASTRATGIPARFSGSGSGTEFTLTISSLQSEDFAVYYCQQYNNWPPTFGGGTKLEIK
# B13: 37G7 (antibody, human IgG1, V domains shown)
# VH: QVQLVESGGGVVQPGRSLRLSCAASGFTFTSYGMHWVRQAPGKGLEWVAVVWYEGSSKFYVDSVKGRFIISRDNSKNTLYLQMNSLRAEDTAVYYCARAYCGGDCYPFDYWGQGTLVTVSS
# VL: DIQMTQSPSSLSASVGDRVTITCRASQGISNYLAWYQQKPGKVPKLLIYAASTLQSGVPSRFSGSGSGTDFTLTISSLQPEDVATYYCQKYNSAPWTFGQGTKVEIK
# B14: M17 (antibody, human IgG1, V domains shown)
# VH: QVQLVESGGGVVQPGRSLRLSCAASGFTFRSYGMHWVRQAPGKGLEWVALIWYDGGDQYYADSVKGRFTISRDSSKSTLYLQMNSLRAEDTAVYYCARAQCGDDCYPFDYWGQGTLVTVSS
# VL: B13 VL with S30Y, A94D, V104L
# B15: 35B1 (antibody, human IgG1, V domains shown)
# VH: B13 VH with S31T, Y53F, S56N, V61I, Y80F, Y100N, G103A
# VL: B13 VL with T72S, Q79R
# B16: 34B7 (antibody, human IgG1, V domains shown)
# VH: B13 VH with S56N, V61I, G103D
# VL: B13 VL with V104L
# B17: 29C4 (antibody, human IgG1, V domains shown)
# VH: B13 VH with T30S, S31N, V51I, E54D, S56G, S57P, V61A, I69T, A99S, T115D
# VL: B13 VL with N92Y
# B18: 11F9 (antibody, human IgG1, V domains shown)
# VH: EVQLVESGGGLVKPGGSLRLSCAASGFTFSYAWMSWVRQAPGKGLEWVGRIKSKTDGGTTDYAAPVKGRFTISRDDSKNTLYLQLNSLKIEDTAVYYCTTGRIAAAGFDYWAQGTLVTVSS
# VL: DAVVTQESALTTSPGETVTLTCRSSTGTVTTSNYANWVQEKPDHLFTGLIAGTNNRAPGVPARFSGSLIGDKAVLTITGAQTEDEAIYFCALWYSNHWVFGGGTKLTVLG
# B19: 3H9 (antibody, human IgG1, V domains shown)
# VH: B18 VH with T28V, S35N, D56E, Y62N, D75E, A112G
# VL: B18 VL with V74A
# B20: 6C11 (antibody, human IgG1, V domains shown)
# VH: QVQLQQSGPGLVKPSQTLSLTCAISGDSVSSNSAAWNWIRQSPSRGLEWLGRTYYRSKWYNDYPVSVKSRITINPDTSKNQVSLQLNPVTPEDTAVYYCTREQGYSSSRYYYYYGMDVWGQGTTVTVSS
# VL: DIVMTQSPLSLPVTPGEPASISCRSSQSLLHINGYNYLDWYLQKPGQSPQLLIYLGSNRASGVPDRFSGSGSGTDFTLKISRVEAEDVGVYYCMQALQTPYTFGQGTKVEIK
# B21: 43B2_56A6 (antibody, human IgG1, V domains shown)
# VH: EVQLLESGGGLVQPGGSLRLSCAASGFTFSSYAMSWVRQAPGKGLEWVSTISGSGDSTYYADSVKGRFTISRDNSKNTLYLQMNSLRAEDTAIYYCAKFGVRGVIITNWFDPWGQGTLVTVSS
# VL: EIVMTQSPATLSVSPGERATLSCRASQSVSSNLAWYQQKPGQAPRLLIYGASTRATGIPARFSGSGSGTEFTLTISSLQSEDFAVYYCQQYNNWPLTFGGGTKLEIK
# B22: 50B4_56B2 (antibody, human IgG1, V domains shown)
# VH: B21 VH with A88V
# VL: B10 VL with A43V, S87Y, H90Q, P96L
# Tests used:
# [1] = target: T1, human TMEFF1 extracellular domain recombinant protein (plasmid BBP377, S40-V330, C-terminal 8xHis) (human, UniProt Q8IYR6 40-330); experiment: BLI (Octet Red), His-tagged TMEFF1 ECD and deletion mutants on anti-Penta-His biosensors, unpurified recombinant antibody
# T1 construct: Secreted from CHO cells with a non-native signal peptide (not part of the mature protein); also called hTMEFF1 ECD; hTMEFF1-ECD
# T1 sequence: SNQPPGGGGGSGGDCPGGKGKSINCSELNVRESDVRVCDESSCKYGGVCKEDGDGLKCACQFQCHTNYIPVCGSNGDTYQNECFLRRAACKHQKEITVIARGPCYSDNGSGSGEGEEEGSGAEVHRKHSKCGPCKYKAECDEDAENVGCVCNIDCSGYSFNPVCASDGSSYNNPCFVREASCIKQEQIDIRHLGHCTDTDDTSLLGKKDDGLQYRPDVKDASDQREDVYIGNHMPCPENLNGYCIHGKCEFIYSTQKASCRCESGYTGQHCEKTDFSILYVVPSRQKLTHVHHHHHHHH
# Description: TMEFF1 recombinant proteins expressing 3 different deletion mutants, AFS1 (AFollistatin Domain 1), AFS2 (AFollistatin Domain 2) or AFS1&FS2 were used to identify binding domains among different antibodes using an Octet Red instrument with Anti-Penta-His (HIS 1K) biosensors. […] 100 ngs of purified TMEFF1 ECD was run along with unpurified supernatant of transfected CHO cells with the different deletion mutants. HIS 1K biosensors were loaded by submerging the biosensors into wells containing 10 ug/ml of full length TMEFF1 or one of 3 different deletion mutants (AFS1, AFS2 or AFS1&FS2) for 60 seconds. Following the loading step, the biosensors were then dipped for 30 seconds in PBS before immersion for 30 seconds in 200 ul of unpurified recombinant antibodies for 30 seconds. The biosensors were then dipped briefly (30 seconds) in PBS to observe any dissociation. […] Differential binding to the deletion mutants allowed for determination of binding sites on TMEFF1 recombinant protein. For cases where the antibody bound all 3 recombinant proteins, the binding is outside of the deleted domains.
# 26 of the identified antibodies were checked for epitope domain binding by Octet™ using the hTMEFF1-ECD recombinant deletion mutants (see Table 7, below).
# [2] = target: T1, human TMEFF1 extracellular domain …; experiment: BLI (Octet Red), antibody on Protein A biosensor, recombinant hTMEFF1 ECD as analyte
# Description: (§1) The affinity of antibodies to various recombinant TMEFF1 protein was determined on an Octet Red™ instrument. After loading reagents into a 96-well plate, the Octet Red™ with Protein A-conjugated biosensors was programmed as follows: 30 seconds for baseline #1; 120 seconds to immobilize the antibody; 30 seconds for baseline #2; 300 seconds for association of antibody to recombinant TMEFF1; and 300-600 seconds for dissociation of recombinant TMEFF1 from the antibody.
# Affinity of thirteen antibodies was calculated using hTMEFF1 ECD recombinant protein by Octet™.
# [3] = target: T2, Macaca fascicularis TMEFF1 extracellular domain recombinant protein (plasmid BBP480, S40-V330, C-terminal … (Macaca fascicularis)); experiment: BLI (Octet Red), antibody on Protein A biosensor, recombinant cyTMEFF1 ECD as analyte
# T2 construct: range 40-330; also called cyTMEFF1 ECD; monkey TMEFF1 ectodomain
# Description: as §1
# Affinity of 7 antibodies was calculated using cyTMEFF1 ECD recombinant protein by Octet™.
Binder,binding result [1],Kd [2] [nM],Kd [3] [nM]
B1,binds,,
B2,binds,,
B3,binds,,
B4,binds,,
B5,binds,,
B6,binds,,
B7,,43,101
B8,,98,
B9,,69,
B10,,50,65
B11,,9,7
B12,,4,7
B13,binds,,
B14,binds,,
B15,binds,,
B16,,20,22
B17,binds,,
B18,binds,,
B19,binds,,
B20,binds,,
B21,,39,
B22,,52,
